According to publication PMC4205158 (Structure (London, England : 1993), 2008):
“Also recorded” adds a separate entry of the source.

B1: Pellino2: GST-fusion protein of full-length Pellino2 (human cDNA) (protein)
chain: MFSPGQEEHCAPNKEPVKYGELVVLGYNGALPNGDRGRRKSRFALYKRPKANGVKPSTVHVISTPQASKAISCKGQHSISYTLSRNQTVVVEYTHDKDTDMFQVGRSTESPIDFVVTDTISGSQNTDEAQITQSTISRFACRIVCDRNEPYTARIFAAGFDSSKNIFLGEKAAKWKNPDGHMDGLTTNGVLVMHPRGGFTEESQPGVWREISVCGDVYTLRETRSAQQRGKLVESETNVLQDGSLIDLCGATLLWRTADGLFHTPTQKHIEALRQEINAARPQCPVGLNTLAFPSINRKEVVEEKQPWAYLSCGHVHGYHNWGHRSDTEANERECPMCRTVGPYVPLWLGCEAGFYVDAGPPTHAFTPCGHVCSEKSAKYWSQIPLPHGTHAFHAACPFCATQLVGEQNCIKLIFQGPID
modifications: left off: His6, N-terminal, cleaved

Experiments:
[1] = molecular target: Rad9(pT192) peptide
[2] = test system: IRAK1b; experiment: GST-pulldown of IRAK1b; conditions: qualitative; HEK293T lysates; kinase-inactive IRAK1b
[3] = molecular target: IRAK1-ki; experiment: GST-pulldown of kinase-inactive mutant IRAK1-ki; conditions: qualitative, HEK293T lysates

Molecule | Kd [1] | interaction with IRAK1b in GST-pulldown [2] | interaction with IRAK1-ki in GST-pulldown [3]
Purified Pellino2 (from UniProt Q9HAT8 1-420) (natural protein) | > 100 µM |  | 
B1 |  | are not precipitated; also recorded: do not interact | are not precipitated; also recorded: do not interact
